Results from patent US20260125457A1 (Janssen / Centocor, published 2026).
Residue numbers refer to the chain shown, from its start.

Columns and labels:
[1] = target: CALRins5 (mutant calreticulin, 5 base pair insertion, Type 2) expressed with MPL on engineered cancer cells (UniProt P27797); assay: cell-based or functional assay
[2] = target: CALRdel52 (mutant calreticulin, 52 base pair deletion, Type 1) expressed with MPL on engineered cancer cells (UniProt P27797); assay: cell-based or functional assay
[3] = target: T1, HIS-CALRdel52 (produced in E. coli); assay: QC monoclonal phage ELISA
T1 construct: also called recombinant CALRdel52 protein; CALRdel53 target protein
T1 chain: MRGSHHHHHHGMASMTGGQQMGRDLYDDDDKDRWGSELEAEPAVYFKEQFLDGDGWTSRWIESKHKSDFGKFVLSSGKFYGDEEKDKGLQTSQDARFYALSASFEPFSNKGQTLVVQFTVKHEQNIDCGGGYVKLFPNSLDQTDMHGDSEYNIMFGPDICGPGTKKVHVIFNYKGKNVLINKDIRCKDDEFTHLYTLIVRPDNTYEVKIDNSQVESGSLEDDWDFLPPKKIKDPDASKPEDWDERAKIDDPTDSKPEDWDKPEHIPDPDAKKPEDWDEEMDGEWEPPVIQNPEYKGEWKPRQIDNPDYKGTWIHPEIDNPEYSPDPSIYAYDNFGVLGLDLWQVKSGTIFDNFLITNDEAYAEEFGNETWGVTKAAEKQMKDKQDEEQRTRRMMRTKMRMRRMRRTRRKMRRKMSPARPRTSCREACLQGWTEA
Excerpt: Next, recombinant CALRdel52 protein (SEQ ID NO: 5) and the 22 amino acid CALRmut peptide (SEQ ID NO: 1) were used for selecting specific binders from the immune rabbit/human Fab library prepared above. By DNA sequencing, 15 unique Fabs were identified and specific binding to the CALRmut target peptide was confirmed by phage ELISA and by QC ELISA after soluble expression of Fab-AP (Fab-conjugated to Alkaline Phosphatase).

[4] = target: T2, 22 amino acid CALRmut-specific peptide (acetylation of the terminal amino-group; C-terminal -OH group); assay: phage ELISA; QC ELISA of soluble Fab-AP
T2 construct: also called 22aa CALRmut peptide; CALRmut target peptide
T2 peptide: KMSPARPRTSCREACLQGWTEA

Chain of CALRins5 (mutant calreticulin, 5 base pair insertion, Type 2) expressed with MPL on engineered cancer cells (P27797 other isoform, or with tags, fused parts or gaps mutant limits assumed): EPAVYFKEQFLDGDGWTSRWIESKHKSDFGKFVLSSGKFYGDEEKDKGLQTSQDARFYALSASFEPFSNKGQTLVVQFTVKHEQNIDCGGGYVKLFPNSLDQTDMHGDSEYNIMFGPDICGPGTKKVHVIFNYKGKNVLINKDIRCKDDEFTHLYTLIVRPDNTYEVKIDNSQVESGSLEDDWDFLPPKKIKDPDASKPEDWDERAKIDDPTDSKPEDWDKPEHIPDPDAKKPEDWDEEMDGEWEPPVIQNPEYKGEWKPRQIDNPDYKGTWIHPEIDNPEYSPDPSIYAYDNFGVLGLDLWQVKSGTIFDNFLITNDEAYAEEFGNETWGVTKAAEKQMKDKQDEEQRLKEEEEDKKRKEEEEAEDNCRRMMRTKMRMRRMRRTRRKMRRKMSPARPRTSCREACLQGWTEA

B1: CALRB80 (MP1018C Fab x CD3W245-LH-scFv, medium affinity) (bispecific antibody, part only; not given: CD3 scFv arm and IgG1 constant regions, V domains shown, not shown: another chain or arm of the molecule; a dimerising Fc or GST; small tags and cut ends)
VL: DVVMTQTPSSVSAAVGGTVTINCQASQSLYNNKNLAWYQQKPGQPPKLLIYYASALASGVSSRFKGSGSGTQFTLTISGVQSDDAATYYCQGEFNCNSADCNSFGGGTEVVVK
VH: QSVEESGGRLVTPGTPLTITCTVSGFSLSSYAMSWVRQAPGKGLEWIGVIDSGGTTYYATWAKSRFTISKTSSTKVALKITSPTTEDTATYFCARESYAGYDGYGHPIPYGMDPWGPGTLVTVSS
In the case of B1, the Cytotoxicity EC50, K562 MPL CALRins5 cells [1] is reported as 0.0434 µg/mL, the Cytotoxicity EC50, OCI-M2 MPL CALRins5 cells [1] is reported as 0.0212 µg/mL and the Cytotoxicity EC50, K562 MPL CALRdel52 cells [2] is reported as 0.0401 µg/mL. It also gave a Cytotoxicity EC50, OCI-M2 MPL CALRdel52 cells [2] of 0.0205 µg/mL.

B2: CALRB81 (MP1018 Fab x CD3W245-LH-scFv, medium affinity) (bispecific antibody, part only; not given: anti-CD3 scFv arm, constant regions, V domains shown, not shown: another chain or arm of the molecule; a dimerising Fc or GST; small tags and cut ends)
VL: B1 VL
VH: QSVEESGGRLVTPGTPLTITCTVSGFSLSSYAMSWVRQAPGKGLEWIGVIDSGGTTYYATWAKSRFTISKTTKVALKITSPTTEDTATYFCARESYAGYDGYGHPIPYGMDPWGPGTLVTVSS
With B2 the Cytotoxicity EC50, K562 MPL CALRins5 cells [1] was 0.0509 µg/mL, the Cytotoxicity EC50, OCI-M2 MPL CALRins5 cells [1] was 0.0171 µg/mL and the Cytotoxicity EC50, K562 MPL CALRdel52 cells [2] was 0.0457 µg/mL. It also gave a Cytotoxicity EC50, OCI-M2 MPL CALRdel52 cells [2] of 0.0196 µg/mL.

B3: Clone 18 (Fab, V domains shown)
VH: QSVEESGGRLVTPGTPLTITCTVSGFSLSSYAMSWVRQAPGKGLEWIGVIDSGGTTYYATWAKSRFTISKTQTKVALKITSPTTEDTATYFCARESYAGYDGYGHPIPYGMDPWGPGTLVTVSS
VL: B1 VL with S82C
notes: Rabbit/human chimeric Fab (human CH1, CK) on phage; also soluble Fab-AP
In the case of B3, the “phage ELISA signal (Coating: CALR)” value [3] is reported as 1.91 and the binding result [4] is reported as “binds”.

B4: Clone 1 (Fab, V domains shown)
VH: QEQLKESGGRLVTPGTPLTLTCAVSGFSLDIYGMSWVRQAPGKGLEWIGIIYIEGITYYANWAKGRFTISKTSSTTLELKMTSLTTEDTAMYFCVAGVGRIWGPGTLVTVSS
VL: YVMMTQTPSSVSAAVGGTVTINCQASQSLYNNNNLAWFQQKPGQPPKRLIYPASTLASGVSSRFKGSGSGTQFTLTISDVQRDDAATYFCLGEFSCSSADCYAFGGGTEVVVK
notes: as for B3
With B4 the “phage ELISA signal (Coating: CALR)” value [3] was 2.92 and the binding result [4] was “binds”.

B5: Clone 20 (Fab, V domains shown)
VH: QSLEESGGRLVTPGTPLTLTCTVSGIDLSNNAISWVRQAPGKGLEYIGVIGNTGDTYYASWAKGRFTISKTSSTTVDLKMTSLTTEDTATYFCVRGPPSYSNSVKNIWGPGTLVTISS
VL: DPMLTQTPSSVSAAVGGTVTIGCQSSQSVYDKNWLSWYQQKPGQPPSRLIYDASKLESGVPSRFSGSGSGTQFTLTISGVQCDDAATYYCAGGFTGNVYAFGGGTKLEIK
notes: as for B3
With B5 the “phage ELISA signal (Coating: CALR)” value [3] was 2.69 and the binding result [4] was “binds”.

B6: Clone 7 (Fab, V domains shown)
VH: B5 VH with S2Q, T12A, T18R, I33V, D55T, S60N, E86D, K105R, I116V
VL: B5 VL with K32N, S47N, E57A, Q81K, F94Y, A100S, K106M, L107V
notes: as for B3
B6: binds [4].

B7: Clone 10 (Fab, V domains shown)
VH: B5 VH with L3V
VL: B5 VL with A85V, K106E, L107V, E108V, I109V
notes: as for B3
B7 was tested, and the “phage ELISA signal (Coating: CALR)” value [3] was 2.18 and the binding result [4] was “binds”.

B8: Clone 2 (Fab, V domains shown)
VH: B5 VH with L3V, D55T, T85A, E86S, I116V
VL: B5 VL with S78G
notes: as for B3
With B8 the “phage ELISA signal (Coating: CALR)” value [3] was 2.87 and the binding result [4] was “binds”.

B9: CALRB115 (MP1004 Fab x CD3W245-HL-scFv, high affinity) (bispecific antibody, part only; not given: anti-CD3 scFv arm, constant regions, V domains shown, not shown: another chain or arm of the molecule; a dimerising Fc or GST; small tags and cut ends)
VH: QEQLEESGGRLVTPGTPLTLTCKVSGIDLSNNAISWVRQAPGKGLEYIGVIGNTGDTYYASWAKGRFTISKTSSTTVDLKMTSLTTEDTATYFCVRGPPSYSNSVKNIWGPGTLVTISS
VL: DPMLTQTPSSVSAAVGGTVTINCQSSQSVYNNNWLSWLQQKPGQPPNRLIYDASKLESGVPSRFSGSGSGTQFTLTISGVQSDDAATYYCAGGFTGNVYTFGGGTEVVVK
In the case of B9, the Cytotoxicity EC50, K562 MPL CALRins5 cells [1] is reported as 0.0541 µg/mL, the Cytotoxicity EC50, OCI-M2 MPL CALRins5 cells [1] is reported as 0.0431 µg/mL and the Cytotoxicity EC50, K562 MPL CALRdel52 cells [2] is reported as 0.0348 µg/mL. The Cytotoxicity EC50, OCI-M2 MPL CALRdel52 cells [2] was 0.0508 µg/mL.

B10: Clone 15 (Fab, V domains shown)
VH: B5 VH with S2Q, D55T, T85A, E86S
VL: B9 VL with P2V, M3V, L4M, S82C
notes: as for B3
B10: binds [4].

B11: Clone 22 (Fab, V domains shown)
VH: QQLEESGGRLVTPGTPLTLTCTVSGIDLSNNAMSWVRQAPGKGLEYIGVIGNTGTTYYASWAKGRFTISKTSSTTVDLKMTSLTTEDTATYFCVRGPPSYSNSVKNIWGPGTLVTIS
VL: B9 VL with M3V, S82C
notes: as for B3
B11: binds [4].

B12: Clone 17 (Fab, V domains shown)
VH: B9 VH with K23T, I34M, D56T, S61N, T75A, E87D, I117V
VL: B9 VL with P2V, N31D, N32K, N47S, S82C, E106K
notes: as for B3
With B12 the “phage ELISA signal (Coating: CALR)” value [3] was 2.23 and the binding result [4] was “binds”.

B13: Clone 11 (Fab, V domains shown)
VH: B9 VH with E5K, T13A, T19R, K23T, I34V, D56T, S61N, E87D, I117V
VL: B9 VL with S10P, S25A, S36T, L38Y, E57A, S69F, S82C, G92A, F94W, T100S
notes: as for B3
B13: binds [4].

B14: Clone 4 (Fab, V domains shown)
VH: B9 VH
VL: B9 VL with S82R
notes: as for B3
In the case of B14, the “phage ELISA signal (Coating: CALR)” value [3] is reported as 2.54 and the binding result [4] is reported as “binds”.

B15: Clone 5 (Fab, V domains shown)
VH: B9 VH with E5K, T13A, T19R, K23T, I34V, D56T, S73T, E87D, I117V
VL: B5 VL with M3V, A100G, K106E, L107V, E108V, I109V
notes: Rabbit/human chimeric Fab on phage; also Fab-AP
B15: binds [4].

B16: Clone 21 (Fab, V domains shown)
VH: B9 VH with E5K, T13A, T19R, K23T, I34V, D56T, S61N, E87D
VL: B5 VL with P2V, M3V, L4M, K106M, L107V
notes: as for B3
B16: binds [4].

B17: Clone 3 (Fab, V domains shown)
VH: B9 VH with E5K, T13A, T19R, K23R, I34V, D56S, S61N, T86A, E87D, I117V
VL: B5 VL with K106E, L107V, E108V, I109V
notes: as for B3
B17: binds [4].

B18: Clone 16 (Fab, V domains shown)
VH: QEQLKESGGRLVTPGTPLTLTCTASGFSLSNYYMSWVRQAPGKGLEWIGGISSRAGTWYASWAKGRFTISGTSTTMDLKITSPTTEDTATYFCARGLKIWGPGTLVTVSS
VL: DPVLTQTESPVSAAVGGTVTINCQASQSVYDDNNLAWYQQKPGQPPKRLIYPASTLASGVSSRFSGSGSGSQFTLTISDVQCDDAATYYCQGEFSCTSADCVAFGGGTEVVVK
notes: as for B3
B18 was tested, and the “phage ELISA signal (Coating: CALR)” value [3] was 2.94 and the binding result [4] was “binds”.
